The values below come from US20160333075A1.

In this assay the target is enterovirus 71 (EV71) virions (enterovirus 71). Briefly: cell-based or functional assay.

B1: monoclonal antibody E20 produced by the hybridoma cell line EV20/5 (antibody, V domains shown)
VH: EVQLVESGGGLVKPGGSLKLSCAASGFTFNIYAMSWVRQTPEKRLEWVATISDGGSYTYYPDNVKGRFTISRDNAKNNLYLQMSHLKSEDTAMYYCVRDRGNYYSRAFPYAYWGQGTLVTVSA
VL: SIVMTQTPKFLPVSAGDRVTMTCKASQSVGNNVAWYQQKSGQSPKLLIYYASNRYTGVPDRFTGSGSGTDFTFTISSVQVEDLAVYFCQQHYSSPPTFGAGTKLELK
In turn, B1 gave an Inhibitory concentration 50 (IC50), Vero NIBSC of 9.95 µg/mL; a PRNT50 of original hybridoma of 5 µl/ml; an end point PRNT50, Vero NIBSC of 10000 ng/mL.

B2: monoclonal antibody E18 produced by the hybridoma cell line EV18/4 (antibody, V domains shown)
VH: QIQLVQSGPELKKPGETVKISCKASGYTFTRYGMSWVKQAPGKGLKWMGWINTYSGVPTYADDFKGRFAFSLETSASTAYLQINNLKNEDTATYFCARRGYSNYYPMDFWGQGTSVTVSS
VL: DIKMTQSPSSMYASLGERVTITCKASQDIKSYLSWYQQKPWKSPKTLIYYAKNLADGVPSRFSGSGFGQDYSLTISSLESDDTATYYCLQHGESPYTFGSGTKLEIKR
Take B2: the Inhibitory concentration 50 (IC50), Vero ATCC came out at 0.272 µg/mL; the Inhibitory concentration 50 (IC50), Vero NIBSC is 0.181 µg/mL; the PRNT50 of original hybridoma turned out to be 0.625 µl/ml; the end point PRNT50, Vero ATCC amounted to 625 ng/mL. The molecule also returned an end point PRNT50, Vero NIBSC of 312 ng/mL.
